From paper PMC7060279 (2020) come the findings set out here.

Holding throughout (test): SPR
For orientation: Surface plasmon resonance follows binding to a sensor surface in real time, without labels.

Experiment [1] addresses human recombinant TLR2 protein (human, UniProt O60603 21-588).
For the next experiment, the target named is T1, integrin αvβ3 protein (UniProt P06756 31-1048; P05106 27-718).
T1 chain 1: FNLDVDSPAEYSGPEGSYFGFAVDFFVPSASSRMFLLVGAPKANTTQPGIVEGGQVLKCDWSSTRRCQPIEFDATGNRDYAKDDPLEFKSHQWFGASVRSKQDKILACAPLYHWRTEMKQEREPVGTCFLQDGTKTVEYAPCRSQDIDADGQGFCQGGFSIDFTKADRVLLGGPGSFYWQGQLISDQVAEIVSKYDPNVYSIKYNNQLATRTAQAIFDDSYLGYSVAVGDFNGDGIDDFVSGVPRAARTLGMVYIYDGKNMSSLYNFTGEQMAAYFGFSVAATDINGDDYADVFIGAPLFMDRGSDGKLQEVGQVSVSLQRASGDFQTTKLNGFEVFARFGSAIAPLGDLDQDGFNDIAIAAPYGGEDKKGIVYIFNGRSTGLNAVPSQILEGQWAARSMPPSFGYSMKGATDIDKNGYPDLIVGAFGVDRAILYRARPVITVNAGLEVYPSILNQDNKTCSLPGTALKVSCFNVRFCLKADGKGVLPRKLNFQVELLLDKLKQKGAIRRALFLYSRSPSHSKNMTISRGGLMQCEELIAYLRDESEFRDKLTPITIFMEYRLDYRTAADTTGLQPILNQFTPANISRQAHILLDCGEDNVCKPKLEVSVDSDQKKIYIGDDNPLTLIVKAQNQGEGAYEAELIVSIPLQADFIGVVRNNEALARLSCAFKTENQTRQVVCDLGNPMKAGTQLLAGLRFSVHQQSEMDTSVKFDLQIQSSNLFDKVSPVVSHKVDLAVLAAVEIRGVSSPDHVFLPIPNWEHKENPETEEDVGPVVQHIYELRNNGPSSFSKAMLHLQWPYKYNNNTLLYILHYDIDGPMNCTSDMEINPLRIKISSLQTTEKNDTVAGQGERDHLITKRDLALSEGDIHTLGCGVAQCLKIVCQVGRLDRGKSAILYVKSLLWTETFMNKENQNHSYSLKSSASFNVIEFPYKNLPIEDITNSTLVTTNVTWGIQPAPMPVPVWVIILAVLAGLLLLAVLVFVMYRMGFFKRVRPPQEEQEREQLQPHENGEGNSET
T1 chain 2: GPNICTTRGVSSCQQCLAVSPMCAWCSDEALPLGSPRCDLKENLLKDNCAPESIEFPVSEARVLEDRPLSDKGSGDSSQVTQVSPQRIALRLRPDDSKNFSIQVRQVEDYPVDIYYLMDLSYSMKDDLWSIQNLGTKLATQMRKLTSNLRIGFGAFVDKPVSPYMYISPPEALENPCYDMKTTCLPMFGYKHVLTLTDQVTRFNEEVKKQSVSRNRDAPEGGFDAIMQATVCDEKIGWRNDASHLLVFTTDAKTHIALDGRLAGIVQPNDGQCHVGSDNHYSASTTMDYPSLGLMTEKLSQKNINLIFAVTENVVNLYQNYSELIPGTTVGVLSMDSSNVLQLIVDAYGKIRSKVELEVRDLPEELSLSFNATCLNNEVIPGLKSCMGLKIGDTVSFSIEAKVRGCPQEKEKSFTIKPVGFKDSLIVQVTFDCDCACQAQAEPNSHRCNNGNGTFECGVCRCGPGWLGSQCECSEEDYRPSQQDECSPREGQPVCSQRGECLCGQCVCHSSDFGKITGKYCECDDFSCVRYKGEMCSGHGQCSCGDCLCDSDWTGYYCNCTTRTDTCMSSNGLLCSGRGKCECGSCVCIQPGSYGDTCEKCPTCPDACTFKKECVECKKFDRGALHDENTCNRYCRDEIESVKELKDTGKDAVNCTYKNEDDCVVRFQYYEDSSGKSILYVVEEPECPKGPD

For experiment [2], the target named is human recombinant TLR4 protein (without MD2) (human, UniProt O00206 24-631).
Sequence of human recombinant TLR4 protein (without MD2) (O00206 24-631): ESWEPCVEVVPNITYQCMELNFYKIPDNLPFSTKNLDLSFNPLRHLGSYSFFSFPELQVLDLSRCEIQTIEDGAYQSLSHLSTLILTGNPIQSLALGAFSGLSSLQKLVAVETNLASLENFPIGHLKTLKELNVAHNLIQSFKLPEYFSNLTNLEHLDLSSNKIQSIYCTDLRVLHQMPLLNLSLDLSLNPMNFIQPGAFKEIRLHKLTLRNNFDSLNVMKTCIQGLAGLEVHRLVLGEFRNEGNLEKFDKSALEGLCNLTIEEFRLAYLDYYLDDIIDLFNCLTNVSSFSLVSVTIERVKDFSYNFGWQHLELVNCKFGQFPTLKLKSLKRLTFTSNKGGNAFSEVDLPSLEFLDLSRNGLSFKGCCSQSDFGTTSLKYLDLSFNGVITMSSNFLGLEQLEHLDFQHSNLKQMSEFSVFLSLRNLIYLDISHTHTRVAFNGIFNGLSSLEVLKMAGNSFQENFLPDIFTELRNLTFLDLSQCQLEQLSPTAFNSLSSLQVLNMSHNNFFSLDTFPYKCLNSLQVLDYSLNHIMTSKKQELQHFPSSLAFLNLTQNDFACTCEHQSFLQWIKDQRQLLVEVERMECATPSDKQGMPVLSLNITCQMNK

Sequence of human recombinant TLR2 protein (O60603 21-588): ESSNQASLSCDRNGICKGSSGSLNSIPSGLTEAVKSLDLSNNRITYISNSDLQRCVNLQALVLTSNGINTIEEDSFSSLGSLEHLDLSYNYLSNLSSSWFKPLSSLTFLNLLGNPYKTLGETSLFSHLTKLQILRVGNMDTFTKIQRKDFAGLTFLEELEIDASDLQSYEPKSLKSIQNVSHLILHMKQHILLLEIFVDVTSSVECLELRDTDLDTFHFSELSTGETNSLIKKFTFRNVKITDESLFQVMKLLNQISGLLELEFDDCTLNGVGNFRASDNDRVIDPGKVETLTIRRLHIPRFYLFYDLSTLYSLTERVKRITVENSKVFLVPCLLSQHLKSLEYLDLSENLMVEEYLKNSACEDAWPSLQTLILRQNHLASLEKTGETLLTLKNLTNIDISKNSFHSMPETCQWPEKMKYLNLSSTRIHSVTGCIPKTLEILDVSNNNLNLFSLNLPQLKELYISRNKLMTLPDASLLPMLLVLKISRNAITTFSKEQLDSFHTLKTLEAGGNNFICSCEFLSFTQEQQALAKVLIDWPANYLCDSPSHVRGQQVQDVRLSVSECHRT

B1: CCN1-WT (recombinant matricellular protein CCN1) (natural protein)
chain: TCPAACHCPLEAPKCAPGVGLVRDGCGCCKVCAKQLNEDCSKTQPCDHTKGLECNFGASSTALKGICRAQSEGRPCEYNSRIYQNGESFQPNCKHQCTCIDGAVGCIPLCPQELSLPNLGCPNPRLVKVSGQCCEEWVCDEDSIKDSLDDQDDLLGLDASEVELTRNNELIAIGKGSSLKRLPVFGTEPRVLFNPLHAHGQKCIVQTTSWSQCSKSCGTGISTRVTNDNPECRLVKETRICEVRPCGQPVYSSLKKGKKCSKTKKSPEPVRFTYAGCSSVKKYRPKYCGSCVDGRCCTPLQTRTVKMRFRCEDGEMFSKNVMMIQSCKCNYNCPHPNEASFRLYSLFNDIHKFRD
Usually koff stands for the rate constant with which the complex falls apart. Take B1: the koff is 0.0146 s⁻¹ in experiment [1], 0.0193 s⁻¹ in the experiment with integrin αvβ3 protein and 0.00288 s⁻¹ in experiment [2].
